The DeepSol protein solubility set

Experiment: soluble on expression in E. coli; label from the status in PepcDB or PDB records

| Sequence | soluble on expression in E. coli |
| --- | --- |
| MIKVVVRKRPLSELEKKKKDSDIITVKNNCTLYIDEPRYKVDMTKYIERHEFIVDKVFDDTVDNFTVYENTIKPLIIDLYENGCVCSCFAYGQTGSGKTYTMLGSQPYGQSDTPGIFQYAAGDIFTFLNIYDKDNTKGIFISFYEIYCGKLYDLLQKRKMVAALENGKKEVVVKDLKILRVLTKEELILKMIDGVLLRKIGVNSQNDESSRSHAILNIDLKDINKNTSLGKIAFIDLAGSERGADTVSQNKQTQTDGANINRSLLALKECIRAMDSDKNHIPFRDSELTKVLRDIFVGKSKSIMIANISPTISCCEQTLNTLRYSSRVKNKGNSKLEGKPIPNPLLGLDSSRTGHHHHHH | soluble |
| NKDMALTVRGNFTHAENEVIYWEQSGVNYPYQSNSGVPYKVQRGLIALGLFKDEDDIKSSPKQTFMDNYRPGDIKYKDVNGDGKIDKDDVVPLNYSAVPFIQYGFALDWNYKAFRVSILFEGVSKVQYFQGGRGFYPFLNESRGNLLEMVADPRNRWIPREYAEVNGIDPALAENPNAKFPRLTYGENKNNNQESTFWLADGKYLRLKNVDVSYRFTNNWLKSRVGVESATLSLIGENLHVWDKVKLFDPSQASGNGAEYPLQRMYTLQLNLTF | not soluble |
| SAAFPQWTRVDDKRFELALLQIPEGSPNFIENIAYYLQKPVKEVEYYYCALVHDIERIESGKYVLPKYPEDDYVKLTEAGESKGNGKKTGIPWSEEEQRLFLEGLNKFGKGDWKNISRYCVKSRTSTQVASHAQKYFARQKQESTNTKRPSIHDMTLGVAVNVPGSNLESTGQQPHFGDQIPSNQYYPSQENFRGFDQRW | soluble |
| MASMNDFIGRWKLVQTENFDEYMKEIGVGLITRKAAAHLKPILEIRLDGETWNFDQFSTFKNTKLSFKLGEEFVENSPDDRTYNSLFTFENGKLTHRQNKIKENHKSSVLTTWLENGKLIQTYQSGDVICRREWERE | not soluble |
| MGSDKIHHHHHHNKNTLPDSNGTLVPVGSWYLGLSVGVGALKNPLRGQDNIPLYVLPEFRYYGERFSVENLDVSFTLYDAPAYSLELVGQQNMDGLLFPGDNRRLMASFTGMIPIRSRDVVETAVELPPLYPEHKSMSYMAGVAARYFGWFDAQVLALTDVSKVHHGYEINLSLGKQYNWKNINFEAQFGATYKSSKLTEYYYNGEYQELFYQVYNYRADSAINPYIQLSAAYDLGNNYFVSGNVRNIWLDDTIHHSPIFEDTHLLTYFIGIKKLF | not soluble |
| MQQVIPAPRVQVTQPYAGQKPGTSGLRKKVSEATQPNYLENFVQSIFNTLRKDELKPKNVLFVGGDGRYFNRQAIFSIIRLAYANDISEVHVGQAGLMSTPASSHYIRKVNEEVGNCIGGIILTASHNPGGKEHGDFGIKFNVRTGAPAPEDFTDQIYTHTTKIKEYLTVDYEFEKHINLDQIGVYKFEGTRLEKSHFEVKVVDTVQDYTQLMQKLFDFDLLKGLFSNKDFSFRFDGMHGVAGPYAKHIFGTLLGCSKESLLNCDPSEDFGGGHPDPNLTYAHDLVELLDIHKKKDVGTVPQFGAACDGDADRNMILGRQFFVTPSDSLAVIAANANLIFKNGLLGAARSMPTSGALDKVAAKNGIKLFETPTGWKFFGNLMDAGLINLCGEESFGTGSNHIREKDGIWAVLAWLTILAHKNKNTDHFVTVEEIVTQYWQQFGRNYYSRYDYEQVDSAGANKMMEHLKTKFQYFEQLKQGNKADIYDYVDPVDQSVSKNQGVRFVFGDGSRIIFRLSGTGSVGATIRIYFEQFEQQQIQHETATALANIIKLGLEISDIAQFTGRNEPTVIT | soluble |
| MSNQYINEPITTGKVTLETTAGDIEIELWTKEAPLACRNFIQLCMENYYKGTVFHRLVKNFILQGGDPTATGTGGESIYGKPFKDEIHQRLKFNRRGIVGMANAGRDDNGSQFFFTIGDRGAPELDKKHTIFGKVTGPTLFNMLKITEVETEGDRPVTFYKITGARIDNNPFDDLKPREKRKKEKSERRKEPKVVETKKTNLLSFGDEVEEDEQELAVFNKV | not soluble |
| RIVEIPVCYGGEFGPDLEEVAKINQLSPEEVIDIHTNGEYVVYMLGFAPGFPFLGGMSKRIAAPRKSSPRPSIPAGSVGIAGLQTGVYPISTPGGWQLIGKTPLALFRPQENPPTLLRAGDIVKFVRISEKDYHAYKEESN | soluble |
| MGSDKIHHHHHHMSNTKKGLATAGYNDDLAKLEEIFLPNFFYKKMQYYFSSSGLISNDVLFVHYTSTESALDIIREKRVLMRNALHMPDRQEVQDGFNIMDGLLSNENNHWVEFRNRIEVVLPGVVDRVMKIYSDHSHGRNDGTYFLSVLEHDESEKELGRLSMWRAFCGQSQPVAMFLRLPALSAVSQVLRIFFNPVLYKGKGQQHLELAEVIKNVENHKSFLERLDPDLVTSAIVSMILINVLCVKHKVFKEEREWRCVYLPKCFTSETSARLIEPGVEEQVGASRNVYKMPLNAAIDPVLSDIDLSKIFDSLIIGPSKSPYATYEVFCDELKKIGVSDVESKVRVTEIPVR | not soluble |
| MFNGDDDFPMGAMHSFGQMHQQMMSDMNMMTGGMLRNMGMGGPMFGGLMVPSPFGAITDGSGQQPSRRRQELEMNPFAPFGGLLGGLGGMGMMMPPPGQGANMYMSSSVMTIGPDGKPRVEQQTVRRHGDVTETKRRVDKNGESSMSIGHSIGDRSHFIDKKRDREGNVRKQQRFQNLDEASAEAFDREFSSRVRQGYGSGSRSSNLREIDNGLSSSRRSPFGGAGASSSSRRMESRGASRGAPIVTLPEEEETAHSRSSTSHRVGGPLIREISEEEAEQAASSIPKRRRGQQ | not soluble |
| GPGSMSLKKKTFKQRIRKNDMKQRHQIGFGLRKRMGAARRIRNRYDSVDDGTRPMEMIVSEIAEGTAVPSQEAVLDPRSLTDLLLRPAESPVSNNSASASANVATTSCAVASKSNGCSSALWKRGSSKSSALLTSVPLASEKVLPSLPLAPDDPLALPDTRVFEEEERQQRLAREAAARQNENKNLYRHSGQPYLFWERVGLHPALLQALRDLHFTHPTPVQEEVLPNVLASGDEGLARQRSSEADKKSKKHKRAGGAADSAGHDVVVSAETGSGKTLVFALPILQDLLTTLDTERVSAVTPTSSAEAVHEKATGQASSDAAWRERS | soluble |
| MGSDKIHHHHHHMTNIAILGTASDVGKSIVATALCRIFSNAGVDVAPYKAQNMSNNSGVTPDGFEMGRAQIVQAQAARVAPHADMNPVLLKPNTDTGAQVVLQGKVCADKSAREYFGDTQRWAEAAFESLDRLMVRHELLVIEGAGSCAEMNLYQRDFVNFKTARRAGAAVILVADIDRGGVFAQVVGTLAVIPPEDRALVKGVIINRFRGDKSLFEGGVKMLESMTGVPVLGVIPYFRGFTIDAEDAVPLSSVVDPKQEPSGDKIGVAAIYFPHISNFTDLAPLERDPSVELHYLHRPKSLDGYKALILPGSKNVRGDLAWLETMGWRDEIEKFRKRGGIIVGLCGGYQMLGASIADPYGVEGAPGASAGLAMLPVETVLEREKALCNSVGKIAGTPFFVSGYEIHMGRTALEPGASPLLEVTERNGVATDDFDGAKSADGQVTGTYFHGFFDRPEVRTWFLRLLDGGYESPRGASVADPFELLAKHFSENLDLEKLFAIAGLSVKGEKES | not soluble |
| MHKRATSPLSAARTRRKPHGWKKREDDGVGGRFLSIGECMVELSQAGNGLLRKGFAGDTFNAAWYARACLPQDWSVDYFTALGDDPLSEDMLAFIAEAGIGTEKIRRIKGGTPGLYLINLKDGERTFSYWRNAAAARQLAADADHLRKTVESADVVYFSGITLAILASAHDVDTFLAELRRARAAGKLVVFDPNIRPRLWADRDVMLETISNGARAATLVMPSFDDEASHFGDVSVEATIARYRSLGVENIVVKDGAKGATLDFGGSRSHAPAEKAVDVVDTTSAGDSFNGAFLARYVTGSSPEEAATFAARAAATVIGHHGALISPELLPLVG | not soluble |
| MTAEVTAADAEVLLAQPRGFCAGVDRAIDIVERALELHGAPIYVRHEIVHNRYVVEDLRGKGAVFIDELDQAPAGAIVVFSAHGVSQAVRGEAEARGLRVFDATCPLVTKVHIEVARMRAAGREIVMIGHKGHPEVEGTLGQAQGGMYLVETVEDVAALQVSDPGNLAYVTQTTLSVDDAAAVAGALKARFPGIVEPKKSDICYATQNRQDAVKLLAPECDLVLVVGSTNSSNSNRLREVAERKGVAAYLIDGAHAIDPAWLQGRRSIGITAGASAPEVLVQQVVERVRELGAVSVRTMPGLEESVAFPLPKGLSRKIAQTESLEAAALEHHHHHH | not soluble |
| MGHHHHHHSHMGFYLGITALKSIGNNKNNNIDNENNHQAKILTFPVSFTCRTFLPARGDILQGTVKKVLWNGAFIRSGPLRYAYLSLLKMPHYHYVHSPLSEDEKPHFQKDDLSKIAVGVVVRFQVLAVRFKERPHKRRNDYYVLATLEGNGSFGP | soluble |
| MSLGRIGLRKLLQRIGIVAESMTPLATDPVEVTQLLDARWYDERLRALADELGRDPDSVRAEAAGYLREMAASLDERAVQAWRGFSRWLMRAYDVLVDEDQITQLRKLDRKATLAFAFSHRSYLDGMLLPEAILANRLSPALTFGGANLNFFPMGAWAKRTGAIFIRRQTKDIPVYRFVLRAYAAQLVQNHVNLTWSIEGGRTRTGKLRPPVFGILRYITDAVDEIDGPEVYLVPTSIVYDQLHEVEAMTTEAYGAVKRPEDLRFLVRLARQQGERLGRAYLDFGEPLPLRKRLQEMRADKSGTGSEIERIALDVEHRINRATPVTPTAVVSLALLGADRSLSISEVLATVRPLASYIAARNWAVAGAADLTNRSTIRWTLHQMVASGVVSVYDAGTEAVWGIGEDQHLVAAFYRNTAIHILVDRAVAELALLAAAETTTNGSVSPATVRDEALSLRDLLKFEFLFSGRAQFEKDLANEVLLIGSVVDTSKPAAAADVWRLLESADVLLAHLVLRPFLDAYHIVADRLAAHEDDSFDEEGFLAECLQVGKQWELQRNIASAESRSMELFKTALRLARHRELVDGADATDIAKRRQQFADEIATATRRVNTIAELARRQEGHHHHHH | soluble |
| MAPKTIFITGANRGIGLGLVRELLKVPGVEALVAGARNIDGAKELQSLAKADARLHLIAVDVSNDGSLENSVKSVSGIVGDRGLNLLINNAGLIESYGTTSAPNRASVLHCIDVNAVSALLASQHFLPLLQKAASHVSGDSLTPDRAAIVNIGSDCASQALNLRGSGPSNSLLAYKMSKVAMLSFSRSMAADFKRLEIPVLITNIHPGWVQTDMGGSNAEISVDESVTKIVASIAKLNGGHQGGLFNRELEEMPL | not soluble |
| MGSDKIHHHHHHMTLELIPVGISACLLGNPVRFDGGHKRLTFAVEELAPYFRFESVCPEMAIGLPVPRPALRLVREGESHVTMRASNGSSLDVTQQITVFSADKVSQLQHLCGYIVCAKSPSCGMERVKVYDEAQKNARKSGVGLFTQELMRQMPWLPVEEDGRLHDSGLRENFIERVYALHELNQLWKNGLSRGALIAFHSRYKLLLLAHSQPEYRELGPFVAGIDKWESLEEYVVEYRTRLMKLLSTPATRRNHTNVLMHVQGYFRRQLSSQQRQELAQLIDRYRQGLQPLLAPITLLKHYMAEYPDAYLAQQRYFEPYPEALRLRYGH | not soluble |
| RALIGRLPDGRADLLENFAAGPGLAQRFGERYPEHAGRDLRFIMELYHAGDTHARDYITATLAAAGETIAGFASAIDVDAIIIGGGVGNIGDAIIKPFAHGFAAHAIPPLDTIPIRQAQLGTDAPIVGAAHLGHSAIE | not soluble |
| MSLQYQNQDNFPERIEYLVDKLNGPSEFARKTGVTLSTITRWRKGEADPSRSNLVKIAEVTGVSIEWLATGKIKEEKTTEEKPAGSLVSRAFERMQAMLEEGVSMIDSYSSINVSAGFGSFNEGITQPDGQEPYSDELLTSLGVKADNCAVFWANGNSMLPTINNYDQMLVDLSRKEIQGDRIYLVQNGESVWVKRVKMEWDGISLISDNKEEYPPISITGENAQNLQIIGQVVHIGHSLIEGHHHHHH | soluble |
